Results on 29 molecules are retold here after US20210388087A1 (Chugai, published 2021).

Sequences and labels used below:
B1: dBBDu139 (antibody, V domains shown)
VH: QVQLVESGGGLVQPGRSLRLSCAASGFTFSNAWMHWVRQAPGKGLEWVAQIKDRGNAYNAYYAESVKGRFTISRDDSKNSIYLQMNSLKTEDTAVYYCRFVHYRHPLLHIQYGVDAWGQGTTVTVSS
VL: DIVMTQSPLSLPVTPGEPASISCRSSQSLVHSNRNTYLHWYQQKPGQAPRLLIYKVSNRFSGVPDRFSGSGSGTDFTLKISRVEAEDVGVYYCGQGTQVPYTFGQGTKLEIK
notes: Human IgG1; light chain GLS3000 (kappa)
B2: dBBDu217 (antibody, V domains shown)
VH: QVQLVESGGGLVQPGRSLRLSCAASGFTFSNAWMHWVRQAPGKGLEWVAQIKDRQQGYATYYAPSVKGRFTISRDDSKNSIYLQMNSLKTEDTAVYYCRFVHYHLAGYGYYGVDAWGQGTTVTVSS
VL: B1 VL
notes: as for B1
B3: dBBDu174 (antibody, V domains shown)
VH: QVQLVESGGGLVQPGRSLRLSCAASGFTFSSAWMHWVRQAPGKGLEWVAQIKDRASAYNAYYAESVKGRFTISRDDSKNSIYLQMNSLKTEDTAVYYCRYVHYPSYVSFLPYYGVDAWGQGTTVTVSS
VL: B1 VL
notes: as for B1
B4: dBBDu196 (antibody, V domains shown)
VH: QVQLVESGGGLVQPGRSLRLSCAASGFTFSNAWMHWVRQAPGKGLEWVAQIKDRGNAYNAYYAESVKGRFTISRDDSKNSIYLQMNSLKTEDTAVYYCHYVHYASASTVLPAFGVDAWGQGTTVTVSS
VL: B1 VL
notes: as for B1
B5: dBBDu202 (antibody, V domains shown)
VH: B4 VH with R54K, N59A, E64P, A104S, S105A
VL: B1 VL
notes: as for B1
B6: dBBDu189 (antibody, V domains shown)
VH: B4 VH with V48I, G55S, A57Q, N59A, A60T, E64P, S105Q, T108S, V109L, A112S
VL: B1 VL
notes: as for B1
B7: dBBDu205 (antibody, V domains shown)
VH: B4 VH with G55S, N56Q, A57L, N59A, E64P
VL: B1 VL
notes: as for B1
B8: dBBDu199 (antibody, V domains shown)
VH: B4 VH with R54K, G55Q, N56S, A57G, A60T, E64P
VL: B1 VL
notes: as for B1
B9: dBBDu193 (antibody, V domains shown)
VH: B4 VH with G55S, A57Q, N59A, A60T, E64P, A104S, S105A, V109L, A112S
VL: B1 VL
notes: as for B1
B10: dBBDu222 (antibody, V domains shown)
VH: QVQLVESGGGLVQPGRSLRLSCAASGFTISSAWMHWVRQAPGKGLEWVAQIKDRANGYAAYYAPSVKGRFTISRDDSKNSIYLQMNSLKTEDTAVYYCRYVHYATAYDGFYGFGVDAWGQGTTVTVSS
VL: B1 VL
notes: as for B1
B11: dBBDu204 (antibody, V domains shown)
VH: B4 VH with G55S, A57N, N59A, A60T
VL: B1 VL
notes: as for B1
B12: dBBDu186 (antibody, V domains shown)
VH: B4 VH with G55S, A57Q, N59A, A60T, E64P, S105Q
VL: B1 VL
notes: as for B1
B13: Du115/DUL008 (antibody, V domains shown)
VH: QVQLVESGGGLVQPGRSLRLSCAASGFTFSNAWMHWVRQAPGKGLEWVAQIKDKANSYNTYYAPSVKGRFTISRDDSKNSIYLQMNSLKTEDTAVYYCRYVHYGSSYGFLFAGYGVDAWGQGTTVTVSS
VL: DIVMTQSPLSLPVTPGEPASISCQSSEELLHANRKTYLHWYQQKPGQAPRLLIYKVQNRFSGVPDRFSGSGSGTDFTLKISRVEAEDVGVYYCAQGTATPFTFGQGTKLEIK
B14: dBBDu217 (antibody, human IgG1, V domains shown)
VH: B2 VH
VL: B1 VL
notes: human IgG1; GLS3000 light chain
B15: dBBDu139 (antibody, human IgG1, V domains shown)
VH: B1 VH
VL: B1 VL
notes: as for B14
B16: dBBDu197 (antibody, human IgG1, V domains shown)
VH: B4 VH with G55S, N59A, E64P
VL: B1 VL
notes: as for B14
B17: dBBDu174 (antibody, human IgG1, V domains shown)
VH: B3 VH
VL: B1 VL
notes: as for B14
B18: dBBDu173 (antibody, human IgG1, V domains shown)
VH: B4 VH with R54K, A57L, N59A, E64P, S107G, T108G, V109G, P111S, F113Y
VL: B1 VL
notes: as for B14
B19: dBBDu205 (antibody, human IgG1, V domains shown)
VH: B4 VH with G55S, N56Q, A57L, N59A, E64P
VL: B1 VL
notes: as for B14
B20: dBBDu199 (antibody, human IgG1, V domains shown)
VH: B4 VH with R54K, G55Q, N56S, A57G, A60T, E64P
VL: B1 VL
notes: as for B14
B21: dBBDu186 (antibody, human IgG1, V domains shown)
VH: B4 VH with G55S, A57Q, N59A, A60T, E64P, S105Q
VL: B1 VL
notes: as for B14
B22: dBBDu189 (antibody, human IgG1, V domains shown)
VH: B4 VH with V48I, G55S, A57Q, N59A, A60T, E64P, S105Q, T108S, V109L, A112S
VL: B1 VL
notes: as for B14
B23: dBBDu222 (antibody, human IgG1, V domains shown)
VH: B10 VH
VL: B1 VL
notes: as for B14
B24: dBBDu196 (antibody, human IgG1, V domains shown)
VH: B4 VH
VL: B1 VL
notes: as for B14
B25: dBBDu202 (antibody, human IgG1, V domains shown)
VH: B4 VH with R54K, N59A, E64P, A104S, S105A
VL: B1 VL
notes: as for B14
B26: dBBDu167 (antibody, human IgG1, V domains shown)
VH: B4 VH with R54K, A57L, N59A, E64P, S107G, T108G, V109G, A112G
VL: B1 VL
notes: as for B14
B27: dBBDu204 (antibody, human IgG1, V domains shown)
VH: B4 VH with G55S, A57N, N59A, A60T
VL: B1 VL
notes: as for B14
B28: dBBDu193 (antibody, human IgG1, V domains shown)
VH: B4 VH with G55S, A57Q, N59A, A60T, E64P, A104S, S105A, V109L, A112S
VL: B1 VL
notes: as for B14
B29: dBBDu181 (antibody, human IgG1, V domains shown)
VH: B4 VH with V48I, A57N, A60N, E64P, S105T, V109L, P111G, F113Y
VL: B1 VL
notes: as for B14

Substitutions are numbered along the chain they refer to.

The first test concerns the target T1, human CD137-Fc (human, biotin-labeled).
T1 construct: if 90 already holds the Fc, drop the second piece; also called biotin-labeled human CD137 fused to human IgG1 Fc fragment; biotin-human CD137-Fc; not shown: human IgG1 Fc fragment
Nature of the test: bead ELISA on biotin-human CD137-Fc, 0 pmol free CD3e peptide.
B1 came in with an ELISA signal of 9440.
On the same count and under the same terms, next, B2: 19100.
Take B3: the ELISA signal is 4800.
For B4, the ELISA signal came out at 33100.
Still for that read-out and setting: in the case of B5 it was 12100; in that of B6, 27400; in that of B7, 45200.
Molecule B8 showed an ELISA signal of 40900.
B9: the ELISA signal stood at 18200.
Still for that read-out and setting: in the case of B10 it was 7190; in that of B11, 43700.
B12 gave an ELISA signal of 34800.
B13 displayed an ELISA signal of 86200.

The target in another test is T1, human CD137-Fc. Nature of the test: bead ELISA on biotin-human CD137-Fc, 125 vs 0 pmol free CD3e peptide.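 Further: target captured on streptavidin-coated magnetic beads, signal read as fluorescence 2 min after adding APS-5 substrate.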 On the technique in general: In an ELISA, binding on a coated surface is turned into a signal by an enzyme label.
The molecule B1 showed a Signal decrease of 79.6%.
In turn, B2 yielded a Signal decrease of 87.3%.
Molecule B3 gave a Signal decrease of 60.8%.
B4 displayed a Signal decrease of 93.3%.
In turn, B5 came in with a Signal decrease of 84%.
For B6, the Signal decrease was found to be 92%.
With B7, the Signal decrease was 95.2%.
Still for that read-out and setting: next, B8: 94.2%; B9: 87.5%; B10: 55%.
B11: the Signal decrease amounted to 95.7%.
In the case of B12, the Signal decrease was determined as 92.8%.
The molecule B13 gave a Signal decrease of 97%.

The target in a further test is T2, biotin-labeled human CD137 fused to human IgG1 Fc fragment (human, UniProt Q07011 24-186, biotin-labeled).
T2 construct: also called human CD137-Fc; biotin-human CD137-Fc; not shown: human IgG1 Fc fragment
Nature of the test: bead ELISA, 1250 ng IgG, S/N over biotin-human Fc.
B14: the binding result is given as “binds”.
B15: the binding result is “binds”.
For B16, the binding result is “binds”.
Regarding B17, the binding result is recorded as “binds”.
In the case of B18, the binding result is “binds”.
For B19, the binding result is reported as “binds”.
On the same count and under the same terms, next, B20: “binds”; B21: “binds”.
For B22, the binding result is “binds”.
B23: the binding result is listed as “binds”.
Consider B24, for which the binding result is recorded as “binds”.
For the molecule B25, the binding result is recorded as “binds”.
Turning to B26, the binding result is listed as “binds”.
The same measure, in the same setting: next, B27: “binds”; B28: “binds”; B29: “binds”.

The target in a further test is T1, human CD137-Fc. Nature of the test: bead ELISA on biotin-human CD137-Fc with 125 pmol/well free CD3e peptide as competitor.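 Further: Streptavidin-coated magnetic beads in blocking buffer as the capture surface, well signal read as fluorescence 2 min after adding APS-5 substrate.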
B1: the ELISA signal was determined as 1920.
With B2, the ELISA signal was determined as 2420.
With B3, the ELISA signal came out at 1880.
The molecule B4 gave an ELISA signal of 2220.
The same measure, in the same setting: next, B5: 1930.
With B6, the ELISA signal was 2190.
B7 returned an ELISA signal of 2190.
For the molecule B8, the ELISA signal worked out at 2370.
Still for that read-out and setting: in the case of B9 it was 2280; in that of B10, 3240; in that of B11, 1880.
Take B12: the ELISA signal amounted to 2500.
As for B13, the ELISA signal stood at 2620.
